Assay results published in US9751932B2, “Anti-big-endothelin-1 (big-ET-1) antibodies and uses thereof” (Regeneron Pharmaceuticals, Inc., priority 2012, dated 2017).
Changes are numbered by the printed parent chain. “Also recorded” adds a separate entry of the source.

Key:
[1] = target: T1, human big-ET-1 (SEQ ID NO:434) (Homo sapiens, UniProt P05305); test: Surface plasmon resonance (Biacore) binding, mAb capture format, 37° C.; details: for ka / kd: analyte human big-ET-1, mAb capture
T1 sequence (P05305 53-90 limits assumed): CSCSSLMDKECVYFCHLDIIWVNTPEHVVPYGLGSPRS
Method: (§1) Measurements were conducted on a T200 Biacore instrument (Biacore Life Sciences division of GE Healthcare, Piscataway, N.J.). […] Different concentrations of small-ET-1 (SEQ ID NO:435), human big-ET-1 (SEQ ID NO:434) or mouse big-ET-1 (SEQ ID NO:437) were injected over the anti-big-ET-1 captured surfaces at a flow rate of 100 μl/min. Peptide binding was monitored for 3 min while dissociation of mAb-bound peptide was monitored for 4 min in HBST running buffer (0.01 M HEPES pH 7.4, 0.15 M NaCl, 3 mM EDTA, 0.005% v/v Surfactant P20). Kinetic association (ka) and dissociation (kd) rate constants were determined by processing and fitting the data to a 1:1 binding model using Scrubber 2.0 curve fitting software.

[2] = target: T2, mouse big-ET-1 (cleavage by mouse ECE-1) (Mus musculus, UniProt P22387); test: NFAT luciferase reporter assay (293/ETaR/NFAT-Luc cells) for blocking of ECE-1-mediated cleavage; format: cell-based; details: read-out: Blocking IC50 20 nM mBig-ET-1 + 5 nM mECE1; human Fc mAbs (Table 5)
T2 sequence (P22387 53-91): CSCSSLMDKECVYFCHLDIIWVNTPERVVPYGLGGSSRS
Method: (§2) Briefly, HEK293 cell lines were generated to stably express full-length human endothelin receptor type A (ETaR) along with a luciferase reporter element [NFAT (4×)-luciferase]. A single clone was isolated and maintained in 10% FBS, DMEM, NEAA, Pen/Strep, and 500 μg/ml G418 and 100 μg/ml hygromycin B.
(§3) Both human and mouse big-ET-1 blocking experiments were allowed to incubate (37° C.; 5% CO2) overnight. The next morning these solutions were added to the 293/ETaR/NFAT-Luc cells (20,000 cells/well) and luciferase activity was detected after 5.5 hrs (37° C.; 5% CO2) using a Victor X plate reader (Perkin Elmer). The amount of luciferase activity observed under these conditions is a proportional representation of the amount of small-ET-1 generated from cleavage of either mouse or human big-ET-1.

[3] = target: T3, mouse big-ET-1 (SEQ ID NO:437) (Mus musculus, UniProt P22387); test: Surface plasmon resonance (Biacore) binding, mAb capture format, 37° C.
T3 sequence (P22387 53-91 limits assumed): T2 sequence (P22387 53-91)
Method: as §1

[4] = tested on: C57BL/6 mice challenged with human big-ET-1 peptide; test: Mean arterial pressure changes after human big-ET-1 challenge in catheterized mice; format: in vivo, mouse
Method: The purpose of this Example was to evaluate the ability of an exemplary anti-big-ET-1 antibody (H2M6490N) to block […] increases in arterial pressure. Mice that had been previously infused with either blocking anti-big-ET-1 antibody or isotype control were challenged with big-ET-1 peptide. Changes in arterial pressure stemming from either big-ET-1 endogenous conversion to small-ET-1, or having its conversion blocked by circulating anti-big-ET-1 antibody, were measured. To facilitate real time measurements of arterial pressure during these experiments, mice were catheterized using standard protocols.
Briefly, naïve Taconic C57BL/6 mice (8-10 weeks of age) were anesthetized with isoflurane and the skin overlying the carotid artery and jugular vein was cut. Both the right jugular vein and left carotid artery were isolated, taking care not to damage the Vagus nerve or other blood vessels. Using standard techniques, the jugular vein was retracted and a 32-gauge needle (bent at a 90° angle) was used to puncture the vein for insertion of a saline-filled jugular vein catheter. The left carotid artery was then isolated and a Millar Micro-Tip® catheter was introduced using standard protocols. During all procedures a temperature probe was used to monitor animal body temperature, which was kept around 36.5° C. using a Gaymar heated water circulating pad. The above procedures allowed real-time pressure measurements (systolic pressure, diastolic pressure, mean arterial pressure, and body temperature) to be recorded during all big ET-1 challenge experiments.
In the first study, 150 μg (˜2 mg/kg; 1×10^−9 Moles) of H2M6490N or isotype control mAb was injected i.v. using the jugular vein port followed by a bolus of saline to flush the catheter. This caused a slight and transient drop in pressure that returned to baseline and established the T=0 for the experiment.
In a second experiment, the same experimental protocol was utilized except that H2M6490N (˜2 mg/kg; 1×10^−9 Moles) was injected subcutaneously (s.c.) into the mice 24 hrs before challenge with human big-ET-1 peptide.

[5] = target: T1, human big-ET-1 (SEQ ID NO:434); test: MALDI-TOF detection of C-term peptide product from cleavage of big-ET-1 by mouse ECE-1; format: biochemical; set-up: purchased R&D Systems (mouse ECE-1 only)
Source text: Matrix Assisted Laser Desorption Ionization Time of Flight (MALDI-TOF) mass spectrometry was used to determine if selected anti-big-ET-1 antibodies could block the conversion of human big-ET-1 (SEQ ID NO:434) or mouse big-ET-1 (SEQ ID NO:437) into its respective peptides in the presence of mouse endothelin converting enzyme 1 (ECE-1). Human big-ET-1 is specifically cleaved by mECE-1 at Trp-21/Val-22 forming both biologically active small-ET-1 (SEQ ID NO:435; MH^+ 2474) and a non-active C-term product (amino acids 22-38 of SEQ ID NO:434; MH^+ 1809). Mouse big-ET-1 is cleaved at Trp-21/VaI-22 into small-ET-1 (SEQ ID NO:435; MH^+ 2474) and its non-active C-term product (amino acids 22-39 of SEQ ID NO:437; MH^+ 1875). The appearance or absence of these masses, in the presence of antibody, can be monitored by MALDI-TOF. In the example below, the presence or absence of the C-term products served as an indicator for big-ET-1 cleavage since these peptides ionize more efficiently than small-ET-1 (SEQ ID NO:435; MH^+ 2474), thereby yielding a more sensitive readout.
Briefly, human or mouse big-ET-1 (0.5 μM) was mixed with antibody (2.5 μM), in phosphate buffered saline (PBS), at a 1:5 molar ratio (big-ET-1:mAb). After a 1-hr incubation (25° C.), mouse ECE-1 (R&D Systems) was added at 40 nM and the solution was placed at 37° C. Aliquots for mass spectrometry analysis were taken at 0, 15, 30 and 60 minutes. Each aliquot was desalted via C18 Ziptip (Millipore) and analyzed in reflextron-positive mode using a Bruker Ultraflextreme MALDI-TOF instrument (Bruker Daltonics).

[6] = target: T4, human big-ET-1 (cleavage by human ECE-1) (Homo sapiens, UniProt P05305); test: NFAT luciferase reporter assay (293/ETaR/NFAT-Luc cells) for blocking of ECE-1-mediated cleavage; format: cell-based; details: read-out: Blocking IC50 10 nM hBig-ET-1 + 3 nM hECE1; human Fc mAbs (Table 5)
T4 sequence (P05305 53-90 limits assumed): T1 sequence (P05305 53-90 limits assumed)
Method: as §2, §3

B1: H4H6492N2: anti-big-ET-1 antibody, human IgG4 Fc; HCVR/LCVR SEQ ID NO: 418/426 (antibody, V domains shown)
VH: EVQLVESGGGLVKPGGSLRVSCVASGFTFSNAWMTWVRQTPGKGLEWVGRIKSRTDGGTVDYVAPVKGRFTISRDDSKNTLYLQMNSLKAEDTAVYYCRADLDYWGQGTLVTVSS
VL: DVVMTQSPLSLPVSLGQPASISCRSSQSLVHSDGITYLNWFQQRPGQSPRRLIYKISNRDSGVPDRFSGSGSGTDFTLKFSRVEAEDVGVYFCMQGTHWPYTFGQGTKLEIK
modifications: human IgG4 Fc
ka [1]: 424000 M/s
kd [1]: 0.0297 s⁻¹
IC50 [2]: > 100 nM

B2: H2M6490N: anti-big-ET-1 antibody, mouse IgG2 Fc; HCVR/LCVR SEQ ID NO: 18/26 (antibody, V domains shown)
VH: EVQLLESGGGLVQPGGSLRLSCAASGFTFSSYAMTWVRQAPGKGLECISAISGSGYSTYYADSMKGRFSISRDNSKNTLYLQMNRLRAEDTAVYYCTKGGRILEWLLPFDFWGQGTLVTVSS
VL: DVVMTQSPLSLPVTLGQPASISCRSSQSLVYSDGNTYLIWFQQRPGQSPRRLIYKVSNRDSGVPDRFSGSGSGTDFTLIISRVEAEDVGLYYCMQGTHWPPTFGGGTKVEIK
modifications: mouse IgG2 Fc
binding to human big-ET-1 (in words) [1]: high affinity binding
ka [1]: 209000 M/s
kd [1]: 0.00399 s⁻¹
binding to mouse big-ET-1 (in words) [3]: did not show any binding
Kd ([3]; analyte mouse big-ET-1, mAb capture, KD=kd/ka): > 1000 nM
Mean Pressure Change ([4]; Study 1: antibody 150 μg i.v., time 0 min, cumulative big-ET-1 0.00E+00 Moles): 0 mmHg
Mean Pressure Change ([4]; Study 1: antibody i.v., time 30 min, cumulative big-ET-1 3.85E−11 Moles, mAb:big-ET-1 26.0): −0.6 ± 2.6 mmHg
Mean Pressure Change ([4]; Study 1: antibody i.v., time 45 min, cumulative big-ET-1 1.16E−10 Moles, mAb:big-ET-1 8.7): −1.0 ± 3.5 mmHg
Mean Pressure Change ([4]; Study 1: antibody i.v., time 60 min, cumulative big-ET-1 2.32E−10 Moles, mAb:big-ET-1 4.3): 4.0 ± 4.7 mmHg
Mean Pressure Change ([4]; Study 1: antibody i.v., time 75 min, cumulative big-ET-1 4.66E−10 Moles, mAb:big-ET-1 2.1): 18.2 ± 9.6 mmHg
Mean Pressure Change ([4]; Study 1: antibody i.v., time 90 min, cumulative big-ET-1 8.16E−10 Moles, mAb:big-ET-1 1.2): 32.5 ± 20.8 mmHg
Mean Pressure Change ([4]; Study 1: antibody i.v., time 105 min, cumulative big-ET-1 1.28E−09 Moles, mAb:big-ET-1 0.8): 25.1 ± 8.3 mmHg
Mean Pressure Change ([4]; Study 1: antibody i.v., time 120 min, cumulative big-ET-1 1.87E−09 Moles, mAb:big-ET-1 0.5): −15.4 ± 8.2 mmHg
Mean Pressure Change ([4]; Study 2: antibody s.c. ~24 hr before challenge, time 0 min, cumulative big-ET-1 0.00E+00 Moles): 0 mmHg
Mean Pressure Change ([4]; Study 2: antibody s.c. ~24 hr before, time 30 min, cumulative big-ET-1 3.85E−11 Moles, ratio 26.0): 1.7 mmHg
Mean Pressure Change ([4]; Study 2: antibody s.c. ~24 hr before, time 45 min, cumulative big-ET-1 1.16E−10 Moles, ratio 8.7): 7.6 mmHg
Mean Pressure Change ([4]; Study 2: antibody s.c. ~24 hr before, time 60 min, cumulative big-ET-1 2.32E−10 Moles, ratio 4.3): 14.9 mmHg
Mean Pressure Change ([4]; Study 2: antibody s.c. ~24 hr before, time 75 min, cumulative big-ET-1 4.66E−10 Moles, ratio 2.1): 52.1 mmHg
Mean Pressure Change ([4]; Study 2: antibody s.c. ~24 hr before, time 90 min, cumulative big-ET-1 8.16E−10 Moles, ratio 1.2): 45.8 mmHg
Mean Pressure Change ([4]; Study 2: antibody s.c. ~24 hr before, time 105 min, cumulative big-ET-1 1.28E−09 Moles, ratio 0.8): 12.0 mmHg
arterial pressure response to human big-ET-1 challenge (in words) ([4]; ~2 mg/kg antibody, 30 min (i.v.) or 24 hr (s.c.) before challenge): maintained baseline mean arterial pressure until the amount of human big-ET-1 peptide approached the molar equivalent of antibody on board; also recorded: maintained normal arterial pressures longer than those mice that were treated with isotype control antibody; also recorded: effective in inhibiting endothelin-1-mediated elevation in arterial pressure in vivo
cleavage of human big-ET-1 by mouse ECE-1 (in words) [5]: no C-term product was detected
Detection of C-term Peptide Product, 0 min ([5]; Human big-ET-1, mouse ECE-1, 0 min): −
Detection of C-term Peptide Product, 15 min ([5]; Human big-ET-1, mouse ECE-1, 15 min): −
Detection of C-term Peptide Product, 30 min ([5]; Human big-ET-1, mouse ECE-1, 30 min): −
Detection of C-term Peptide Product, 60 min ([5]; Human big-ET-1, mouse ECE-1, 60 min): −

B3: H4H6490N2: anti-big-ET-1 antibody, human IgG4 Fc; HCVR/LCVR SEQ ID NO: 402/410 (antibody, V domains shown)
VH: B2 VH with C47W
VL: B2 VL
modifications: human IgG4 Fc
IC50 [6]: > 100 nM
IC50 [2]: > 100 nM
